The record followed here is patent US20040081651A1 (Biogen, published 2004).

Assay [1] addresses T1, human VLA-1 (α1β1 integrin) on K562 cells transfected with the α1 integrin subunit (human, UniProt P56199 29-1179; P05556 21-798).
T1 construct: whole, on cells; also called huVLA-1; K562-α1
As to the kind of experiment: FACS on human α1-transfected K562 cells.

The target in assay [2] is T2, human α1-I domain-GST fusion protein (human, UniProt P56199 151-364).
T2 construct: Expressed in E. coli; not shown: glutathione S-transferase of vector pGEX4t-i (Pharmacia), with a thrombin cleavage site at the junction
As to the kind of experiment: ELISA on immobilized α1 I domain-GST (±0.058 in r14). (ELISA stands for enzyme-linked immunosorbent assay.)

Assay [3] has as its target T2, human α1-I domain-GST fusion protein. As to the kind of experiment: ELISA; competition with biotinylated mAQC2 (competitor) for immobilized α1 I domain-GST.
For assay [4] the target is unchanged. Kind of assay: electrochemiluminescence; inhibition of α1 I domain-GST binding to type IV collagen beads (±0.007 in r14).
Assay [5] deals with T3, α1β1 integrin (VLA-1) in lysate of α1-transfected K562 cells (human, UniProt P56199 29-1179; P05556 21-798). Kind of assay: electrochemiluminescence; inhibition of α1β1 (K562-α1 lysate) binding to type IV collagen beads (±0.002 in r14).
For assay [6], the target named is T1, human VLA-1 (α1β1 integrin) on K562 …. Kind of assay: FACS of VLA-1-expressing K562α1 cells stained with conditioned medium of transfected 293-EBNA cells; mean MFI normalized to chAQC2 blocked; average of two transfections.
Assay [7] deals with T2, human α1-I domain-GST fusion protein. Kind of assay: ELISA on immobilized α1 I domain-GST (±0.015 in r12).
Assay [8] has the same target. As to the kind of experiment: electrochemiluminescence; inhibition of α1 I domain-GST binding to type IV collagen beads (±0.011 in r12).
The target of assay [9] is T3, α1β1 integrin (VLA-1) in lysate of …. As to the kind of experiment: electrochemiluminescence; inhibition of α1β1 (K562-α1 lysate) binding to type IV collagen beads (±0.014 in r12).

B1: chAQC2 (murine-human chimeric AQC2, blocked light chain; pAND099 + pAND102) (antibody, V domains shown)
VH: DVKVVESGGGLVKPGGSLKLACAASGFSFSRYTMSWVRQIPEKRLEWVATISGGGHTYYLDSVKGRFTISRDNAKNTLYLQMSSLRSEDTAMYYCTRGFGDGGYFDVWGQGTTVTVSS
VL: QIVLTQFPALMSASPGEKVTMTCSASSSVNHMFWYQQKPKSSPKPWIYLTSNLASGVPARFSGSGSGTSYSLTISSMEAEDAATYYCQQWSGNPWTFGGGTKLEIK
notes: also called Chimera
Usually EC50 stands for the concentration giving half of the maximal effect. Read a low EC50 as higher potency in that assay. As a reminder, the IC50 is the midpoint of a concentration-inhibition curve. Read a high IC50 as a need for much substance. Take B1: the values for the concentration for a half-maximal effect (EC50) in assay [1] and in [2] were 0.25 nM and 0.176 nM, respectively. Moreover, the IC50 in assay [3] came to 30 nM; in assay [4], 0.027 nM; in assay [5], 0.071 nM. The “Relative MFI” value in assay [6] was 1 relative to chAQC2 blocked.

B2: monoclonal antibody AQC2 (mAQC2) (antibody, mouse IgG1, V domains shown)
VH: DVKVVESGGGLVKPGGSLKLACAASGFSFSRYTMSWVRQIPEKRLEWVATISGGGHTYYLDSVKGRFTISRDNAKNTLYLQMSSLRSEDTAMYYCTRGFGDGGYFDVWGQGTTVTVSS
VL: QIVLTQFPALMSASPGEKVTMTCSASSSVNHMFWYQQKPKSSPKPWIYLTSNLASGVPARFSGSGSGTSYSLTISSMEAEDAATYYCQQWSGNPWTFGGGTKLEIK
notes: Hybridoma ATCC PTA3273; also called murine AQC2
Take B2: the EC50 in assay [7] was determined as 0.061 nM. Moreover, the IC50 in assay [3] was 38 nM; in assay [8], 0.029 nM; in [9] it was 0.0726 nM.
